According to the supplement of paper PMC12042874:
± gives the uncertainty stated by the source.

Experiment: amyloid nucleation score (Sup35N fusion, yeast selection) (log enrichment); library NNK3; higher = more nucleation; inactive = no reads after selection
Summary of the method: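 Peptides of 20 random codons, each fused to Sup35N, were expressed in psi-negative yeast. Cells were induced with 100 μM copper sulfate for 24 hours and grown 7 days at 30°C on medium lacking adenine and uracil, and plasmid inserts before and after selection were Illumina-sequenced. Nucleation scores are DiMSum log enrichments of output over input reads, centred on the mode score of non-aggregating sequences, and sequences under 100 input reads were excluded.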

Row | Substance | amyloid nucleation score
1 | LFWSWYGGWKLNWGI | 0.661 ± 0.14
2 | LFYFKRFWYVLLLANLLDM | inactive
3 | LGCREDFCERIGCVLRVMLE | inactive
4 | LGGLYLLIFLRSGPRRWSGT | inactive
5 | LGICGVRRSLMKRR | inactive
6 | LGLRHDICITDRINSGLRGS | inactive
7 | LGQFDTDTLAHDSMGAGNAV | 1.24 ± 0.16
8 | LGRKNGGAVNVRRPHFDWDG | inactive
9 | LGSFNDVWIVCADWFAFLKV | inactive
10 | LGVFSRRACYLFRICLTELI | inactive
11 | LGVYYVNNRYFADFKGVEHG | 0.154 ± 0.67
12 | LGWSMFLFDFSFKVKSH | inactive
13 | LGYDRQGLLTEVYRFSYIIL | inactive
14 | LHAWAVVLGFLETP | inactive
15 | LHCFIAQFMQRYFREWSGNG | inactive
16 | LHFGDMLLVCNTFFELRVLH | 1.73 ± 0.08
17 | LHGNLRNLI | inactive
18 | LHITYGSFCTLVFLIIVRWF | inactive
19 | LIALNYVWYTAQ | inactive
20 | LIHVGRFTVRTKL | inactive
21 | LIKSSRLCLPKYTGVCNSHK | -0.189 ± 0.88
22 | LILNYGGLPWFIPIP | inactive
23 | LINEECFFACVEVIGNVFRV | -0.888 ± 1.1
24 | LIPFCAVHPLWEHHLSKSFF | inactive

Row | Substance | amyloid nucleation score
25 | LIQDFTSSGRI | inactive
26 | LIQVIGLSIALRTMSCLRGS | inactive
27 | LIRPDCEDTRFCIRSWDCQG | inactive
28 | LIRYPGRSEDTVRFWRERMG | inactive
29 | LIVSIYMCGCRKRITFLRVS | inactive
30 | LKARYYNYIASERSGCEFHK | inactive
31 | LKDLGYELIILAFKRLFLCC | inactive
32 | LKIAQHRGSVFNGDKK | inactive
33 | LKIGTFCSNPGSLIVVYLTV | inactive
34 | LKLFLRVYCIDI | 0.535 ± 0.23
35 | LKPLGDSADGRWQLLWNSAD | inactive
36 | LKSMLLFSMRSRSVKCCGGE | inactive
37 | LKVCNISDWFNIACSVMSFH | 1.93 ± 0.086
38 | LKVTSFKALHCLTAYHSSPL | inactive
39 | LKVVVDQKVG | 1.27 ± 0.15
40 | LKWAV | inactive
41 | LLAGQAIEIDVCAQGLKLKF | -0.968 ± 1.8
42 | LLCNESILKPVTPKWRDCKL | inactive
43 | LLELRVVRLRTNVAVVHIYV | inactive
44 | LLEQMQGFRLIQSGVHNTLM | inactive
45 | LLFDDKCYGLVVDNYRYANI | inactive
46 | LLFSAKGFECLMFVNRLYLA | inactive
47 | LLFSLHCCCKSTYFFKSFLN | inactive
48 | LLFTCQSDKDYVRFFVQFNW | inactive

Row | Substance | amyloid nucleation score
49 | LLGLFRLFKPQAFKGSPAAS | inactive
50 | LLIMKGCAC | inactive
51 | LLIVFLIFRMLRLAGASI | inactive
52 | LLLASVRVRFRHWPTYLRYF | inactive
53 | LLLCYYNGIWRFDGRLS | inactive
54 | LLLFRKRLMLPRVLQQVPRH | inactive
55 | LLLIFS | inactive
56 | LLLSSILRYS | inactive
57 | LLLSTRID | inactive
58 | LLMFHCQMMSLGGYTSVSAR | inactive
59 | LLMYARYSG | 1.52 ± 0.11
60 | LLQFLMFARNSMIKVVRSMV | inactive
61 | LLRVNSEAGESCQVSFTFNM | 1.73 ± 0.093
62 | LLSETAHLFVFT | inactive
63 | LLSPEEGGLKSECRRWSGAL | inactive
64 | LLTGFLSKVSGQS | inactive
65 | LLTIKN | inactive
66 | LLVCVFFGVLKIYFIVAIRW | inactive
67 | LLVESMDGGRPILQDGLFKY | inactive
68 | LLVMGFCRVLCDLGGRYVRV | inactive
69 | LLVPILCPFKV | inactive
70 | LLVSIFLGYPQ | inactive
71 | LLVTDYGFELTVQLWNKRSL | -0.155 ± 0.33
72 | LLWKKRVEEDSWLHTGSERM | 0.904 ± 0.15

Row | Substance | amyloid nucleation score
73 | LLYIRC | 0.705 ± 0.23
74 | LMDLNADKWHNAFTYSSVVE | inactive
75 | LMFEL | inactive
76 | LMFSMRTDRSMCGKDPLKRA | inactive
77 | LMFYGFYLVLRGS | inactive
78 | LMGGQMRDIVFHMQGF | 1.45 ± 0.1
79 | LMGLNYAWDAFWLIFPGLCF | inactive
80 | LMIVLKLP | inactive
81 | LMLEASCCSHAEFPHGVKMR | inactive
82 | LMLLIFAWFQILTVRIRLFR | inactive
83 | LMPWTMSIWGL | inactive
84 | LMSAFSIRRGYCCVENSASR | inactive
85 | LNACSGFTFLFNRVVIKVIL | -0.42 ± 0.8
86 | LNDGWVLIYYSGALSDREI | inactive
87 | LNEVTVLTIMMCLRS | 0.971 ± 0.16
88 | LNFEATSYLTMRYDLSYVRF | inactive
89 | LNFMWRGMY | -0.135 ± 0.62
90 | LNHYECSW | inactive
91 | LNIMVE | inactive
92 | LNLETLISWLSVCPRGRTEE | inactive
93 | LNLLKLRKKAPHRPIPGRSG | inactive
94 | LNLNFKVRGL | 0.654 ± 0.27
95 | LNMGVTRLDLISLGWGSVSL | -0.41 ± 0.75
96 | LNNWSKRVFLSPVPVWHSMS | -0.619 ± 1.9

Row | Substance | amyloid nucleation score
97 | LNSVKAGFINTKDPVMDSMC | -0.254 ± 0.84
98 | LNTCNVFKYFVSGKRFREVG | inactive
99 | LNTLGKNNIKRSILRRSLYY | inactive
100 | LNWLITYLGKR | 2.24 ± 0.092
101 | LPFNGTGTAWCSAGAQLFGR | 0.837 ± 0.15
102 | LPLADLKGMASASFKDGKVF | inactive
103 | LPLVVIFQLSTYVRQWYA | 0.618 ± 0.28
104 | LPSICVSPI | inactive
105 | LPWTLGVFGLMY | inactive
106 | LQANAI | inactive
107 | LQDKQCHVWDYASGIAYVVE | inactive
108 | LQHVIFSYLLVGASSFRFHP | inactive
109 | LQYLRDCEFCRYVCYCNWLY | 0.443 ± 0.34
110 | LQYWSFKSSSYGGLDIYCEA | inactive
111 | LREQGRNTSR | inactive
112 | LRFGHHMGYEWHLSRKVGSK | inactive
113 | LRFNDYMC | inactive
114 | LRGAVVVSEKTRVTTQCIAR | inactive
115 | LRIKMGIYAHDLCAVIMYTL | 0.515 ± 0.35
116 | LRMFSRVGRNRCYNITSFTC | inactive
117 | LRQGWILVA | inactive
118 | LRQQRHACAIMEVSG | inactive
